According to paper PMC5462797, “A protein-protein interaction dictates Borrelial infectivity” (Scientific Reports, 2017):

B1: BB0323 (residues 22–242) (domain or fragment)
chain: KTPPESRESKNAKIAQPDNKNFQLRDIKDIKNELIRERGHLFYSKEFNEAERLEEAMKQSFSKKKAIEGNEIALKVLERYKTIIRETREKKEKTNYLKENIEKYLNDAEANEAYIWIPLEIDEVNNLYFEATRKYKNYDLDNALDMYSKAFNRAQQAAKNAKEAKALKETDERMYKQLKALEAASNLPIYSNNKLIKPSPWNGRAFIKERNSHLNLLNTNK
notes: BB0323 of Borrelia burgdorferi, residues 22-242; also called BB0323 N2; BB0323^22-242
B2: BB0238 (purified recombinant, wild type) (natural protein)
chain: QGSSSYIDKQKELAIFYYEVGQRYINVGKIKKGKLFQAKALKIYPDLKKGFDIKLAVKELDARIKDDNPKVVMLEDIKLEEIPGIVHEKIEINDFTNAPKIEYIAQRERSKNQDKIIKFQFGKFARALISRNFDLFDSVIADKVNVMGQFESKNDFISTLSSASSKADADELEYLSVDDYYDLKSLKISKSNDTSFAVNVNAKKNDVTKNFPFWKERQTLIFTTEDDNNWFLSSIN
notes: BB0238 of Borrelia burgdorferi; monomer-dimer mixture in solution; also called BB0238 WT; intact BB0238

Legend:
[1] = target: the molecule itself; experiment: SEC; analytical SEC of single proteins on Superdex 75 (10/300), 50 mM Tris-HCl pH 8.0, 0.15 M NaCl, 0.5 mM EDTA, 4 °C; BB0238 9-44 uM, BB0238^∆IM 10-40 uM, BB0323 (22-242) 8 uM; monomer-dimer
[2] = target: B1; experiment: SEC; analytical SEC of ~1:1 mixtures: 10 uM BB0238-BB0323 on Superdex 200; ~9 uM BB0238^∆IM with 8 uM BB0323 22-242 on Superdex 75; 50 mM Tris-HCl pH 8.0, 0.15 M NaCl, 0.5 mM EDTA, 4 °C; details: both partners purified

| Binder | stoichiometry N [1] | stoichiometry N [2] |
| --- | --- | --- |
| B1 | 2 |  |
| B2 | 2 | 1 |
